Test results reported in PMC8748794.

Molecular target: Spt16/Pob3 heterodimer (yeast FACT), full length (yeast) (UniProt P32558)
Sequence of UniProt P32558 (P32558 whole entry, chain 1 of 2): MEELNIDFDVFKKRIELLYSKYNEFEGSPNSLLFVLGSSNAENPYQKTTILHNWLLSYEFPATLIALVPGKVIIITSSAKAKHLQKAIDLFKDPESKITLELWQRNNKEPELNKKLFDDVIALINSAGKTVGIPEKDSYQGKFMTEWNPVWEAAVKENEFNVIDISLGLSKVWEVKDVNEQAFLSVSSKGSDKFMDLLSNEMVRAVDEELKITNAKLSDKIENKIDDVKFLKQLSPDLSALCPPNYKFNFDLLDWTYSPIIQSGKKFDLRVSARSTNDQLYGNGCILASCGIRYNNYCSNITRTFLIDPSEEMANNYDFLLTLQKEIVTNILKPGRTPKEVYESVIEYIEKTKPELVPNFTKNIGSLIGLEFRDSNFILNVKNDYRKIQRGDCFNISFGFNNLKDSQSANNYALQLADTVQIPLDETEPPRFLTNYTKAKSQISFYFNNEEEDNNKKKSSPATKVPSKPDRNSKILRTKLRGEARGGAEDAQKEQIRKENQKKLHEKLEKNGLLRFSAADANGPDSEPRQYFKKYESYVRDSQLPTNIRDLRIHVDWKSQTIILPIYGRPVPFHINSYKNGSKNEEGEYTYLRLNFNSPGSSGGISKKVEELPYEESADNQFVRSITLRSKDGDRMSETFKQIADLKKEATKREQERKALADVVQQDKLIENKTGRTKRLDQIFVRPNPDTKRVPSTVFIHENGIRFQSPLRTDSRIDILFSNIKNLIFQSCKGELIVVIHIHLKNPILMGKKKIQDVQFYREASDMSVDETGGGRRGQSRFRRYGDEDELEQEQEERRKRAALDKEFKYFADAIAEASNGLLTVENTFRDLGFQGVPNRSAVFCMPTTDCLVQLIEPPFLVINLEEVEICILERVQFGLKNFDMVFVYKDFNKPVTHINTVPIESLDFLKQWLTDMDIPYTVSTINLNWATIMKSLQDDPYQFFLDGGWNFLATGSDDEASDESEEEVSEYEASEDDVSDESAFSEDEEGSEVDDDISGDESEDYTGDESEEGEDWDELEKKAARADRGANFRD
Sequence of UniProt P32558 (Q04636 whole entry, chain 2 of 2, further chain): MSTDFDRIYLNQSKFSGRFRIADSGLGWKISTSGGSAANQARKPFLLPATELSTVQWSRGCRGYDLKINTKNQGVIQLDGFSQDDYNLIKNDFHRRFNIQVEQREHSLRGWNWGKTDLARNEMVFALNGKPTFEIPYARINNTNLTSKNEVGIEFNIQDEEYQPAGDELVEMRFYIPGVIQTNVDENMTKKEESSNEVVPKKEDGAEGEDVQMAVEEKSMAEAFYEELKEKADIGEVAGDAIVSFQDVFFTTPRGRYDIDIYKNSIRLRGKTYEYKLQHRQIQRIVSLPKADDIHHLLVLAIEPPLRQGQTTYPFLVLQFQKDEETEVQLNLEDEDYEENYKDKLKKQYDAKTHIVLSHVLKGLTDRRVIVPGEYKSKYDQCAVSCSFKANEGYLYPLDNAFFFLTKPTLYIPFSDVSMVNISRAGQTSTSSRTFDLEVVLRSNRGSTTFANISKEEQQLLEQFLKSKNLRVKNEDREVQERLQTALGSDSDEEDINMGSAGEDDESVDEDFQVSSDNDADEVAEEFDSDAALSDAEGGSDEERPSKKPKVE

Nhp6 (non-histone protein), HMGB-domain factor (from UniProt P11632 1-93) (natural protein)
fraction of FACT particles in the open conformation (>90°) by negative-stain EM; 36% for FACT alone: 51%
